Assay results taken from patent US20220194997A1 (CHINESE UNIVERSITY OF HONG KONG, published 2022).
Values belong to the binder of their own block, whether it stands above or below them.

Legend:
SUMO1(15-55) [1] = molecular target: T1, SUMO1(15-55) (human, Where it is the MST target, it carries Alexa Fluor 647 NHS ester on amines (NHS-647); the letters do not show this.); experiment: MST (FIG. 11b)
T1 construct: Fragment 15-55 of human SUMO1; Recombinant SUMO1 fragments were made with an N-terminal His-tag removed by thrombin; also called SUMO(15-55); SUMO1(15-55) peptide
T1 peptide: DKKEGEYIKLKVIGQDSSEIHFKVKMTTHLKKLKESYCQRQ
Protocol: Unreacted dye was removed with desalting column (2K MWCO, Bio-Rad). The purity was monitored by measuring the ratio of protein to dye after the clean-up procedure. The labelled targets were adjusted to appropriate concentration for detection and kept in ddH2O with 0.1% Tween 20, meanwhile, the ligands were maintained in corresponding buffer (peptides: ddH2O; α-synuclein proteins: 20 mM HEPES, 150 mM NaCl, pH 7.4). For each assay, unlabelled ligand was mixed with equal volume of labelled protein target at 16 different serially diluted concentrations at room temperature.

SUMO1(15-55) [2] = molecular target: T1, SUMO1(15-55); experiment: MST; NHS-647 labelled SUMO1(15-55) as target, peptide titrated as ligand
Protocol: The labelling reaction was performed according to the manufacturer's instructions. Unreacted dye was removed with the dye removal column supplied in the Protein Labelling Kit RED-NHS (NanoTemper Technologies) or desalting column (Bio-Rad). The purity was monitored by measuring the ratio of protein to dye (for example, spectroscopically by measuring absorption at 280 nm for protein and 650 nm for the dye; molar absorbance: 239,000 M⁻¹ cm⁻¹) after the clean-up procedure. The labelled targets were adjusted to appropriate concentration for detection. The ligands were dissolved in reaction buffer and a series of 16 1:1 dilutions was prepared. For the measurement, each ligand dilution was mixed with one volume of labelled protein target. After 10 min incubation, the samples were loaded into standard or premium Monolith NT.115 Capillaries (NanoTemper Technologies). MST was measured using a Monolith NT.115 instrument (NanoTemper Technologies) at an ambient temperature of 25° C. Instrument parameters were adjusted to 20% LED power and medium MST power. Data of three independently pipetted measurements were analyzed (MO.Affinity Analysis software version 2.1.3, NanoTemper Technologies) using the signal from an MST-on time of 5 s.

[3] = molecular target: human wild-type α-synuclein (full-length) (human, UniProt P37840 1-140); experiment: MST (FIG. 7)

B1: αsyn(48-60) (peptide)
peptide: VVHGVATVAEKTK
notes: Synthesized peptide; also called β2-strand peptide αsyn(48-60); SIM 2 (residues 48-60)
binding result (SUMO1(15-55) [1]): binds

Binder: SSEIHFKVKMTTHLKKLKESYCQRQ (also called SUMO(31-55)) [SUMO1(31-55)]
binding result [3]: binds

Further lines, results first:

Kd (SUMO1(15-55) [2]): 2210 nM
B2: αsyn(74-84) (peptide)
peptide: VTAVAQKTVEG
notes: Peptide fragment of α-synuclein; also called β4 strand peptide

Kd (SUMO1(15-55) [2]): 1150 nM
B3: αsyn(35-45) (peptide)
peptide: EGVLYVGSKTK
notes: Synthesized peptide fragment of α-synuclein; also called β1 strand peptide; β1-strand peptide-αsyn (35-45)
